Legend:
Test in all cases: sandwich EIA: 82E1 capture, HRP-labelled IBL-102; antigen 4000 pg/mL read on the E22P-Aβ42 standard curve
[1] = molecular target: D23P-Aβ42 (Homo sapiens (Human)) (UniProt P05067)
[2] = molecular target: A21P-Aβ42 (Homo sapiens (Human)) (UniProt P05067)
[3] = molecular target: M35P-Aβ42 (Homo sapiens (Human)) (UniProt P05067)
[4] = molecular target: V24P-Aβ42 (Homo sapiens (Human)) (UniProt P05067)
[5] = molecular target: G25P-Aβ42 (Homo sapiens (Human)) (UniProt P05067)
[6] = molecular target: E22V-Aβ42 (Homo sapiens (Human)) (UniProt P05067)

cross-reaction rate [1]: 0.5%
cross-reaction rate [2]: 0.27%
cross-reaction rate [3]: 0.68%
cross-reaction rate [4]: 0.33%
cross-reaction rate [5]: 0.53%
cross-reaction rate [6]: 0.28%
B1: IBL-102 antibody (antibody, mouse IgG1, kappa, V domains shown)
VH: EVQLQQSGPELVKPGASVKIFCKASGYTFTDYNMDWVKQSHGKRLEWIGDINPNTGVTIDNPKFKGKATLTVDESSSTVYMELRSLSSEDTAVYYCARLPDNYVMDYWGQGTSVTVSA
VL: DVVMTQTPLSLPVSLGDQASISCRCSQSLVHRNGNTNLHWYLQKSGQSPKLLIYKVSNRFSGVPDRFSGSGSGTDFTLKISRVEAEDLGVYFCSQSTYVPLTFGVGTKLELKR

Source: US20180051071A1
